Results published in article PMC10138647.

Molecular target: GST-cytPERK (cytosolic domain of PERK expressed as a GST fusion protein) (mouse)
Assay: cross-linking; GST-cytPERK (1.3 µM) in solution, phosphate buffer pH 7.4, 2 mM MgCl2, 70 mM KCl, 1 mM DTT; 20 min at 27 °C with UDCA (50, 200, 1000 µM) or without, then 0.4 mM DSS for 30 min at 27 °C; quenched with Tris-HCl; 7% SDS-PAGE, blot with anti-PERK antibody; dimer relative to monomer by densitometry

stoichiometry N: 2
Substance: GST-cytPERK (cytosolic domain of PERK expressed as a GST fusion protein) (domain or fragment)
